According to the supplement of paper PMC9170038:

Tested on: MS2 coat protein
Test: apparent KD of MS2 coat protein; higher = weaker reporter binding
Conditions: Eterna round: R107; input ligand: theophylline 20 uM
Outline: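 The buffer was 100 mM Tris-HCl pH 7.5 with 80 mM KCl and 4 mM MgCl2, used without or with constant ligand. In it, RNA switches transcribed on-chip from Illumina sequencing clusters were titrated with SNAP-549-labelled MS2 coat protein in twofold steps from 0.7 or 1.5 nM to 3 µM. Apparent KD for each design is the median of its normalised cluster binding-curve fits.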

Compared with “AAGCUGCCAAGAAGGUGAUCCAAAUGUGAUACCAGCUAGGAAACUAGCCCUUGGCAGCACAUGAGGAUCACCCAUGUAAUAAUAA [(T)'-(M)'-(T1)-(T2)-(M1)-(M2)_Design1_2/19/17]”, “CCUGCUACGGGAAACCGUAGCAGGAAUGAUACCAGUAGGAAAGACUACCCUUGGCAGCAUGGGAAACAUGAGGAUCACCCAUGUU [SSThA NP+V+V2 #7 Same Structure]” is 2.5-fold lower in “apparent KD of MS2 coat protein” value: 191 nM for the first, 76.3 nM for the second.

“UUUGCACAUGAGGAUCACCCAUGUACAGAUACCAGCCUCAUCUACGGCCCUUGGCAGCUGAGAUAAUGGUGACGUGAUGGGCUUU [Edaniser]” and “AGUCUUGAACGAAGGAGCGACGUACAUGAGGAUCACCCAUGUGGGAGCGAAAGCUCCUAACGUCAGGUAGGUCGCGUUCGAGACA [Omei Arginine B SS A v1]” are within 1.5-fold of each other in “apparent KD of MS2 coat protein” value: 17.2 nM for the first, 21.9 nM for the second.

“GUAAUUAUAAGAAGGAGCGUCGAAAAUGGGUAAACAUGAGGAUCACCCAUGUAAAGGGAACGACAGGUAGGUCGCUUAUGAUUAC [AstromonsSSArgB#22]” and “UGACAUUGCUCAGAUACCAGACAGGAGGAUCACUCCUGUGCCAACAAGUACAAAAUAAAUGUCCCUUGGCAGCUGAGCAAUGUCU [TheoBX 25 #MS2Left #AlternativeMS2 #Theo22]” are within 1.5-fold of each other in “apparent KD of MS2 coat protein” value: 164 nM for the first, 223 nM for the second.

Going from “UUGUUGUUUGGAAGGAGCGUGUAUGAUUUAGAACAUGAGGAUCACCCAUGUUGGAGGAUAGCACAGGUAGGUCGCCGGGUGGUGG [11.X]” to “UGUAUGUGAUUUGAUACCAGACCAGCGGGUGUUGCAUGAGGAUCACCCAUGUAGGUUUGGGUCCCUUGGCAGCAAAUCGCAUACU [SS Theo B #24 Ms18]”, the “apparent KD of MS2 coat protein” value rises from 23.6 nM to 438 nM (19-fold).

First: ACAAGUCCUCAUGAUACCAGCGAUGAGACAUAGUCUCAACAUGAGGAUCACCCAUGUAUUCGCCCUUGGCAGCAUACGGUUUUUG [Arleer]
Second: GUAUUAACAAAAGUUGAUACAGUGGGUGAACGAGGACCGGUACGGCCGCCACUCGGACAUGAGGAUCACCCAUGUCCAUGUGAAA [AstrosExyTryA#12]
The “apparent KD of MS2 coat protein” value of the first is 19-fold higher: 373 nM for the first, 19.2 nM for the second.

Going from “GUACAUGAGGAUCACCCAUGUAUAGUUGAAGGAGCGACCGGUGGGUCAGGUAGGUCGCAGCACAUGGCGUCAACCCGUGUAUGCC [#1 Exclusion - Arginine A Attempt #26 (Inspired by Pi)]” to “UAUAUAAUAACAGAUACCAGCGUGUUAUAAAACAUGAGGAUCACCCAUGUAGUGAUCAAGCGCCCUUGGCAGCUGGUAUUAUAUA [7.A]”, the “apparent KD of MS2 coat protein” value rises from 26.7 nM to 140 nM (5.2-fold).

Compared with “AGACAUGAGGAUCACCCAUGUAGUACGGAUACCAGAUCCAGAUGCGUCCCUUGGCAGCUGUAGUACAGCGUUACAUCGCUCAUAG [Exclusion - Theophylline A (Freestyle 25)]”, “CGGGAACGAUAUGAUACCAGCCUGCGAAAGAAUGCUUAGUACAUGAGGAUCACCCAUGUAGGCCCUUGGCAGCAUCGACUCAAGU [theeternabot_exclusion_MS2_Theo_B_4]” is 2.4-fold lower in “apparent KD of MS2 coat protein” value: 44 nM for the first, 18.1 nM for the second.

Going from “CGCAACCCACAUGAGGAUCACCCAUGUGAAGGAGCGGCGAAUAAGCCAGGUAGGUCGCGCAUGAAUAAAUCAUGUAGGAAGCUAA [XArg-A 8 V1]” to “GAAGGAACCGGAAGGAGCGGGUCCUUAGCCACUACAUGAGGAUCACCCAUGUCCGGGAGGUCCCAGGUAGGUCGCCGGUCUUAAA [Gelece]”, the “apparent KD of MS2 coat protein” value rises from 13.2 nM to 324 nM (25-fold).

Compared with “ACCUGUACGAAAAGUGCAGGACAUGAAUAACGAGGACCGGUACGGCCGCCACUCGGGUAAUAACCUGAGGAUCACCCGGGUCAUG [TrypAS 6 #AlternativeMS2 #Zipper #StaticStem]”, “CGGUACAUGAGGAUCACCCAUGUGUCGGAUACCAGAGAGCCGGCUCUCCCUUGGCAGCUGGUGCGACAUGAGGAUCACCCAUGUG [Exclusion Theophylline A GF19]” is 3.6-fold lower in “apparent KD of MS2 coat protein” value: 211 nM for the first, 58.5 nM for the second.

With “GCACGACAUGAGGAUCACCCAUGUGCAGAUACCAGUAGGAUAUCCUACCCUUGGCAGCUGAGUGGAUCCGGAGGACCAUGGGUAA [Same State Theophylline A GF8]” the “apparent KD of MS2 coat protein” value was 61.7 nM.

Same assay, conditions: Eterna round: R107; input ligand: theophylline 2 mM

Compared with “GGCACAUAGUCGGCCGCCACUACUAACACCUCAGACAACAUGAGGAUCACCCAUGUUCCAGAGUGUAGGACCGGGACUAUGUGCC [Minonka]”, “GGAUAGGACACGGCCGCCACUAGCUAGGAUACUAGCAACAUUUCCUCACCUGAGGAUCACCCUGGUAGGACCGGGUGUCCUAUCG” is 110-fold higher in “apparent KD of MS2 coat protein” value: 12.2 nM for the first, 1390 nM for the second.

Going from “CAGGCUAGGACGGCCGCCACUGUGGCUACGGUACAUGAGGAUCACCCAUGUUUGUGGUUGAUCUACAGGACCGGGUCCUGACACG [Letisoonri]” to “CUCAUCCACGCGGCCGCCACUAUAUUGUGGUGUGGGUGUGACGUAUUACAUGAGGAUCACCCAUGUAGGACCGGGCGUGGAUGAG [Stork]”, the “apparent KD of MS2 coat protein” value rises from 278 nM to 1100 nM (4-fold).

First: GGAUAGGACACGGCCGCCACUGCCUAGGAUACUAGCAACAUUUGGGUACAUGAGGAUCACCCAUGUAGGACCGGGUGUCCUAUCG
Second: GCUGUACCAUGAAGGAGCGCUCACGCAGUUGCGGGUACAUGAGGAUCACCCAUGUUGGGUGAGCAGGUAGGUCGCAUGGUACAGC [SSAB #17]
The “apparent KD of MS2 coat protein” value of the first is 3.3-fold lower: 70.3 nM for the first, 230 nM for the second.

First: GCCUCCAGCCGAAGGAGCGCUAGAAGGUGACAUGAGGAUCACCCAUGUGUGUGAUGUGGCUAGCAGGUAGGUCGCGGAGGAGGCA [Exclusion - Arginine B (Freestyle 22)]
Second: UGGUACAUGGCGGCCGCCACUUCACGUAAAAUAAAAGCGUGAGGAUCACCCAUGCAAUAAGUUGGGAGGACCGGGUCAUGUACCU
The “apparent KD of MS2 coat protein” value of the first is 5.2-fold lower: 74.1 nM for the first, 387 nM for the second.

“AAACGCCACGGAAGGAGCGACAUGAGGAUCACCCAUGUAGUUUUGGCGGAUGCACCCUCCUGUCAGGUAGGUCGCCGUGCGAUAA [XArg-B26]” and “AAAAUCCUACCUGAGGAUCACCCUGGUGAAGGAGCGCCCGAAAGGGCAGGUAGGUCGCACCUGAGGAUCACCCUGGUACCUAAAA [ArgAX 29 #DoubleMs2 #OpenEnded #AlternativeMS2]” are within 1.5-fold of each other in “apparent KD of MS2 coat protein” value: 68.5 nM for the first, 48.3 nM for the second.

First: CUUGGCUGUGCGGCCGCCACUGACUCAUCCUGCAUUACAUGAGGAUCACCCAUGUUGCGGCCUCCCAGGACCGGGCAUAGCCUGC [Veered]
Second: UGGCAAGAGGGAAGGAGCGUCAGCUGAGUCACAUGAGGAUCACCCAUGUCGCACAUAGUGUGACAGGUAGGUCGCCCUCUACCCU [Rearian]
The “apparent KD of MS2 coat protein” value of the first is 3.1-fold higher: 673 nM for the first, 217 nM for the second.

Going from “UGGUGUAGGGUAAAUAGGAUUAGUACAGAAGGAGCGCGAAUAAACGCAGGUAGGUCGCUGGAAUACAUGAGGAUCACCCAUGUUC [Same State Arginine A GF 25]” to “GACAUGAGGAUCACCCAUGUACCGCGAGAAGGAGCGCGGAUAAACGCAGGUAGGUCGCUCGUGGGCUUUUAUUCAAUCGAAAGCU [Zaesar]”, the “apparent KD of MS2 coat protein” value rises from 26.7 nM to 165 nM (6.2-fold).

First: AAUUCCUCACAUGAGGAUCACCCAUGUGAAGGAGCGCCGAAUAAGGCAGGUAGGUCGCACAUGGAAACCGCUGCGAAAGCAGCAA [MAT - Exclusion Arginine A - Mod of Eli - D25]
Second: GUCCUCAGCCGAAGGAGCGCUAGAAGGUGACAUGAGGAUCACCCAUGUGUGUGAUGUGGCUAGCAGGUAGGUCGCGGAGAGGAUU [Exclusion - Arginine B (Freestyle 17)]
The “apparent KD of MS2 coat protein” value of the first is 5.1-fold lower: 25 nM for the first, 127 nM for the second.

First: AGUCUUGAACGAAGGAGCGACGUACAUGAGGAUCACCCAUGUGGGAGCGAAAGCUCCUAACGUCAGGUAGGUCGCGUUCGAGACA [Omei Arginine B SS A v1]
Second: GUAAUUAUAAGAAGGAGCGUCGAAAAUGGGUAAACAUGAGGAUCACCCAUGUAAAGGGAACGACAGGUAGGUCGCUUAUGAUUAC [AstromonsSSArgB#22]
The “apparent KD of MS2 coat protein” value of the first is 17-fold lower: 16.2 nM for the first, 274 nM for the second.

Compared with “UGACAUUGCUCAGAUACCAGACAGGAGGAUCACUCCUGUGCCAACAAGUACAAAAUAAAUGUCCCUUGGCAGCUGAGCAAUGUCU [TheoBX 25 #MS2Left #AlternativeMS2 #Theo22]”, “UUGUUGUUUGGAAGGAGCGUGUAUGAUUUAGAACAUGAGGAUCACCCAUGUUGGAGGAUAGCACAGGUAGGUCGCCGGGUGGUGG [11.X]” is 21-fold lower in “apparent KD of MS2 coat protein” value: 459 nM for the first, 21.4 nM for the second.
